Measurements as given in patent publication US20200174002A1 (ONCOTHERAPY SCIENCE, published 2020).

Columns and labels:
[1] = target: T1, soluble FZD10 protein without the signal peptide (the region of amino acids 21 to 161) (human, UniProt Q9ULW2 21-161); test: ELISA screening of hybridomas on soluble FZD10 protein
T1 construct: Immunogen and ELISA screening antigen; also called recombinant human FZD10 protein; N-terminal extracellular domain peptide of FZD10
T1 sequence: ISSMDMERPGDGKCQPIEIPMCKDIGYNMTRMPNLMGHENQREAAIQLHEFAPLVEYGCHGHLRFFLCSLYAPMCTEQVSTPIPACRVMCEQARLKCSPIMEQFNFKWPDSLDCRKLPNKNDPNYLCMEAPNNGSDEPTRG

[2] = target: T2, full length FZD10 protein (human) (human, UniProt Q9ULW2 21-581); test: immunohistochemical staining, paraffin section of a clinical lung cancer specimen
T2 construct: Live cells in flow cytometry; formalin-fixed paraffin sections in IHC
T2 sequence: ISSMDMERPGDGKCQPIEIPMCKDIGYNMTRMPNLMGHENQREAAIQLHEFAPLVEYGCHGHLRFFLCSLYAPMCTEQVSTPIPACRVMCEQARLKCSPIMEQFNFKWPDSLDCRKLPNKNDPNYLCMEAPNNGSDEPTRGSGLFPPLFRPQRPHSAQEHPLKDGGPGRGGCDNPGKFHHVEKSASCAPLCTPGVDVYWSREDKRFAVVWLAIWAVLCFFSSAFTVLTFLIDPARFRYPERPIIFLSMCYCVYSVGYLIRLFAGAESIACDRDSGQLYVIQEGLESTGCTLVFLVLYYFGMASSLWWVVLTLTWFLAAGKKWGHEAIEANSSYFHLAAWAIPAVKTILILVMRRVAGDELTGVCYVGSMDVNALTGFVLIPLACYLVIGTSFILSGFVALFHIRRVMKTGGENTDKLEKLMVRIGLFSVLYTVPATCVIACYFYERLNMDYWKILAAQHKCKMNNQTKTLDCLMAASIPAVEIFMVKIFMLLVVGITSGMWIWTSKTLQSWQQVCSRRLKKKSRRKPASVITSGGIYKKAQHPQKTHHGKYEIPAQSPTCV
Procedure: For antigen retrieval treatment, sections immersed in Antigen Retrieval Solution pH9 (Nichirei Biosciences Inc.) were incubated at 125° C. for 30 seconds for FZD10/DLD1 and Mock/DLD1, and at 95° C. for 40 minutes for SYO1, T.T, H727, LoVo, COLO201, and clinical specimens. After incubation, they were allowed to stand at room temperature for 20 minutes, and then washed with running water for five minutes. The sections were immersed in 3.0% hydrogen peroxide for ten minutes to block endogenous peroxidases, and washed with Wash Buffer (TBS-T(Takara Bio)) for five minutes three times. Furthermore, to block nonspecific reactions, an appropriate amount of Protein Block Solution (Dako) was added dropwise onto the sections, and they were allowed to stand for ten minutes. […]
The specificity of the anti-FZD10 antibody of the present invention (10A8H4G4) in immunohistochemical staining was evaluated using paraffin sections prepared from mouse xenograft tumors of cancer cell lines and clinical lung cancer specimens. The expression of FZD10 protein and RNA in paraffin sections prepared from mouse xenograft tumors of SYO-1 and COLO201 and in cancerous and non-cancerous regions of clinical lung cancer specimens 1 to 6 was detected by immunohistochemical staining and real-time PCR, respectively, and the results are shown in FIG. 4.

B1: anti-FZD10 antibody (10A8H4G4) (antibody, V domains shown)
VH: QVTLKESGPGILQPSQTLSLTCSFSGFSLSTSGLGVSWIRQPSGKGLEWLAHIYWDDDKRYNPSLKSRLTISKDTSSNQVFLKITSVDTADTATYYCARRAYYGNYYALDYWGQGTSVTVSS
VL: DIVMTQSPSSLTVTAGEKVTMSCKSSQSLLNSGNQKNYLTWYQQKPGQPPKLLIYWASTRKSGVPDRFTGSGSGTDFTLTISSVQAEDLAVYYCQNDYSYPVTFGAGTKLELKR
notes: Mouse monoclonal antibody from hybridoma 10A8H4G4, purified from culture fluid on a Protein A column; it was detected with anti-mouse IgG (H+L); also called clone 10A8H4G4; FZD10Ab(10A8H4G4)
- binding result [1]: binds
- binding result [2]: binds
